Reference: US20200057048A1 (published 2020)

Biological target: T1, human islet-specific glucose-6-phosphatase catalytic subunit-related protein (IGRP) peptide on HLA-DRA*01:01 … (human)
T1 peptide: QHLQKDYRAYYTF
Experiment: multimer staining
Procedure: Three million transduced and sorted GP+envAm12 were plated per well of a 6 well plate in a final volume of 3 ml. Next day 100,000 JURMA-hCD4 were co-cultured with the pre-plated transduced GP+envAm12 in a final volume of 3 ml supplemented with 8 ug/ml of polybrene. This co-culture was maintained during two weeks changing the media every 2 or 3 days. After co-culture, JURMA-hCD4 cells were harvested analyzed by flow cytometry and sorted for high transgene expression. Cells were then stained with PE labeled heterodimers.

B1: IGRP13-25 TCR (TCR, V domains shown)
Valpha: DQQVKQNSPSLSVQEGRISILNCDYTNSMFDYFLWYKKYPAEGPTFLISISSIKDKNEDGRFTVFLNKSAKHLSLHIVPSQPGDSAVYFCAATNSGGSNYKLTFGKGTLLTVNP
Vbeta: DGGITQSPKYLFRKEGQNVTLSCEQNLNHDAMYWYRQDPGQGLRLIYYSQIVNDFQKGDIAEGYSVSREKKESFPLTVTSAQKNPTAFYLCASGGRVYQPQHFGDGTRLSIL
B1: recognises.
